Data as given in patent US20210085781A1 (KORANEX CAPITAL, published 2021).

Target: T1, recombinant SARS-CoV-2 S1 protein expressed from insect (Sf9) cells (S1-His, SinoBiological, Cat. No. … (SARS-CoV-2, UniProt P0DTC2 16-685))
T1 construct: also called S1 protein from insect (Sf9) cells
Experiment: ELISA, coated S1 from Sf9 cells, HRP-conjugated lectin 10 ug/mL

B1: Maclura pomifera lectin (MPA; Cat. No: H-3901-1) (other)
chain 1: GVTFDDGAYTGIREINFEYNSETAIGGLRVTYDLNGMPFVAEDHKSFITGFKPVKISLEFPSEYIVEVSGYVGKVEGYTVIRSLTFKTNKQTYGPYGVTNGTPFSLPIENGLIVGFKGSIGYWLDYFSIYLSL
chain 2: GRNGKSQSIIVGPWGDRVTN
In the case of B1, the “mean fold increase of OD450” value is reported as 7.51 fold.
